# Source: article PMC8694081 (Molecular Biology of the Cell, 2021)
# Where two headings read alike, the source gives them in different places.
# Columns and labels:
# [1] = molecular target: T1, ubiquitin (UniProt P0CG48 1-76); assay: NMR titration
# [2] = molecular target: T1, ubiquitin; assay: NMR HSQC peak broadening and PRE
# [3] = molecular target: T1, ubiquitin; assay: NMR HSQC peak broadening and PRE; remark: listed apart in the source
binder,measurement,setting,value
"HD-PTP V domain (residues 361-711), wild type (domain or fragment) VPMAAHEASSLYSEEKAKLLREMMAKIEDKNEVLDQFMDSMQLDPETVDNLDAYSHIPPQLMEKCAALSVRPDTVRNLVQSMQVLSGVFTDVEASLKDIRDLLEEDELLEQKFQEAVGQAGAISITSKAELAEVRREWAKYMEVHEKASFTNSELHRAMNLHVGNLRLLSGPLDQVRAALPTPALSPEDKAVLQNLKRILAKVQEMRDQRVSLEQQLRELIQKDDITASLVTTDHSEMKKLFEEQLKKYDQLKVYLEQNLAAQDRVLCALTEANVQYAAVRRVLSDLDQKWNSTLQTLVASYEAYEDLMKKSQEGRDFYADLESKVAALLERTQSTCQAREAARQQLLDRE",Kd,[1],~31 µM
"HD-PTP V domain lacking cysteine residues (C425A, C628A, C697A) (domain or fragment) VPMAAHEASSLYSEEKAKLLREMMAKIEDKNEVLDQFMDSMQLDPETVDNLDAYSHIPPQLMEKAAALSVRPDTVRNLVQSMQVLSGVFTDVEASLKDIRDLLEEDELLEQKFQEAVGQAGAISITSKAELAEVRREWAKYMEVHEKASFTNSELHRAMNLHVGNLRLLSGPLDQVRAALPTPALSPEDKAVLQNLKRILAKVQEMRDQRVSLEQQLRELIQKDDITASLVTTDHSEMKKLFEEQLKKYDQLKVYLEQNLAAQDRVLAALTEANVQYAAVRRVLSDLDQKWNSTLQTLVASYEAYEDLMKKSQEGRDFYADLESKVAALLERTQSTAQAREAARQQLLDRE",binding result,[2],binds
"HD-PTP V domain, no-Cys, single cysteine at 368 (A368C), MTSL-labelled (domain or fragment, MTSL spin label on cysteine 368) VPMAAHECSSLYSEEKAKLLREMMAKIEDKNEVLDQFMDSMQLDPETVDNLDAYSHIPPQLMEKAAALSVRPDTVRNLVQSMQVLSGVFTDVEASLKDIRDLLEEDELLEQKFQEAVGQAGAISITSKAELAEVRREWAKYMEVHEKASFTNSELHRAMNLHVGNLRLLSGPLDQVRAALPTPALSPEDKAVLQNLKRILAKVQEMRDQRVSLEQQLRELIQKDDITASLVTTDHSEMKKLFEEQLKKYDQLKVYLEQNLAAQDRVLAALTEANVQYAAVRRVLSDLDQKWNSTLQTLVASYEAYEDLMKKSQEGRDFYADLESKVAALLERTQSTAQAREAARQQLLDRE",binding result,[2],binds
"HD-PTP V domain Site2∆ (E388A, D389A), single spin label at residue 400 (S400) (domain or fragment, MTSL spin label on cysteine 400) VPMAAHEASSLYSEEKAKLLREMMAKIAAKNEVLDQFMDCMQLDPETVDNLDAYSHIPPQLMEKAAALSVRPDTVRNLVQSMQVLSGVFTDVEASLKDIRDLLEEDELLEQKFQEAVGQAGAISITSKAELAEVRREWAKYMEVHEKASFTNSELHRAMNLHVGNLRLLSGPLDQVRAALPTPALSPEDKAVLQNLKRILAKVQEMRDQRVSLEQQLRELIQKDDITASLVTTDHSEMKKLFEEQLKKYDQLKVYLEQNLAAQDRVLAALTEANVQYAAVRRVLSDLDQKWNSTLQTLVASYEAYEDLMKKSQEGRDFYADLESKVAALLERTQSTAQAREAARQQLLDRE",binding result,[3],binds
"HD-PTP V domain Site2∆ (E388A, D389A), single spin label at residue 368 (domain or fragment, MTSL spin label on cysteine 368) VPMAAHECSSLYSEEKAKLLREMMAKIAAKNEVLDQFMDSMQLDPETVDNLDAYSHIPPQLMEKAAALSVRPDTVRNLVQSMQVLSGVFTDVEASLKDIRDLLEEDELLEQKFQEAVGQAGAISITSKAELAEVRREWAKYMEVHEKASFTNSELHRAMNLHVGNLRLLSGPLDQVRAALPTPALSPEDKAVLQNLKRILAKVQEMRDQRVSLEQQLRELIQKDDITASLVTTDHSEMKKLFEEQLKKYDQLKVYLEQNLAAQDRVLAALTEANVQYAAVRRVLSDLDQKWNSTLQTLVASYEAYEDLMKKSQEGRDFYADLESKVAALLERTQSTAQAREAARQQLLDRE",binding result,[3],binds
"HD-PTP V domain, no-Cys, S400C, MTSL-labelled (domain or fragment, MTSL spin label on cysteine 400) VPMAAHEASSLYSEEKAKLLREMMAKIEDKNEVLDQFMDCMQLDPETVDNLDAYSHIPPQLMEKAAALSVRPDTVRNLVQSMQVLSGVFTDVEASLKDIRDLLEEDELLEQKFQEAVGQAGAISITSKAELAEVRREWAKYMEVHEKASFTNSELHRAMNLHVGNLRLLSGPLDQVRAALPTPALSPEDKAVLQNLKRILAKVQEMRDQRVSLEQQLRELIQKDDITASLVTTDHSEMKKLFEEQLKKYDQLKVYLEQNLAAQDRVLAALTEANVQYAAVRRVLSDLDQKWNSTLQTLVASYEAYEDLMKKSQEGRDFYADLESKVAALLERTQSTAQAREAARQQLLDRE",binding result,[2],binds
"HD-PTP V domain Site1∆ (L371A, E374A, E375A) (domain or fragment) VPMAAHEASSAYSAAKAKLLREMMAKIEDKNEVLDQFMDSMQLDPETVDNLDAYSHIPPQLMEKCAALSVRPDTVRNLVQSMQVLSGVFTDVEASLKDIRDLLEEDELLEQKFQEAVGQAGAISITSKAELAEVRREWAKYMEVHEKASFTNSELHRAMNLHVGNLRLLSGPLDQVRAALPTPALSPEDKAVLQNLKRILAKVQEMRDQRVSLEQQLRELIQKDDITASLVTTDHSEMKKLFEEQLKKYDQLKVYLEQNLAAQDRVLCALTEANVQYAAVRRVLSDLDQKWNSTLQTLVASYEAYEDLMKKSQEGRDFYADLESKVAALLERTQSTCQAREAARQQLLDRE",Kd,[1],900 µM
